Laboratory results published in patent US12612465B2, “Formulations comprising PCSK9 specific monoclonal antibodies” (Amgen Inc., priority 2012, dated 2026).

Assays:
human D374Y PCSK9 = human D374Y PCSK9 (Homo sapiens, UniProt Q8NBP7, D374Y/E620G/G670E/V474I); assay: Receptor ligand blocking screen / functional screening of hybridoma antibodies; assay type: binding
Description: To screen for the antibodies that block PCSK9 binding to LDLR an assay was developed using the D374Y PCSK9 mutant. […] The following protocol was employed in the receptor ligand blocking screen: Costar 3702 medium binding 384 well plates (Corning Life Sciences) were employed in the screen. The plates were coated with goat anti-LDLR (R&D Cat # AF2148) at 2 μg/ml in 1×PBS/0.05% Azide at a volume of 40 μl/well. The plates were incubated at 4° C. overnight. The plates were then washed using a Titertek plate washer (Titertek, Huntsville, Ala.). A 3-cycle wash was performed. The plates were blocked with 90 μl of 1×PBS/1% milk and incubated approximately 30 minutes at room temperature. The plates were then washed using the Titertek plate washer. A 3-cycle wash was performed. The capture sample was LDLR (R&D, Cat #2148LD/CF), and was added at 0.4 μg/ml in 1×PBS/1% milk/10 mM Ca^2+ at a volume of 40 μl/well. The plates were then incubated for 1 hour and 10 minutes at room temperature. Contemporaneously, 20 ng/ml of biotinylated human D374Y PCSK9 was incubated with 15 micro liters of hybridoma exhaust supernatant in Nunc polypropylene plates and the exhaust supernatant concentration was diluted 1:5. The plates were then pre-incubated for about 1 hour and 30 minutes at room temperature. Next, the plates were washed using the Titertek plate washer operated using a 3-cycle wash. 50 μl/well of the pre-incubated mixture was transferred onto the LDLR coated ELISA plates and incubated for 1 hour at room temperature. To detect LDLR-bound b-PCSK9, 40 μl/well streptavidin HRP at 500 ng/ml in assay diluent was added to the plates. The plates were incubated for 1 hour at room temperature. The plates were again washed using a Titertek plate washer. A 3-cycle wash was performed. Finally, 40 μl/well of One-step TMB (Neogen, Lexington, Ky.) was added to the plate and was quenched with 40 μl/well of 1N hydrochloric acid after 30 minutes at room temperature. OD's were read immediately at 450 nm using a Titertek plate reader.
The receptor ligand assay was then repeated using the mutant enzyme on the 384 member subset of neutralizers identified in the first large scale receptor ligand inhibition assay. The same protocol was employed in the screen of the 384 member blocker subset assay as was done in the large scale receptor ligand blocking screen.
Limiting dilution was used to isolate a manageable number of clones from each line. […] The isolated clones were each expanded in 50-100 ml of hybridoma media and allowed to grow to exhaustion, (i.e., less than about 10% cell viability). The concentration and potency of the antibodies to PCSK9 in the supernatants of those cultures were determined by ELISA and by in vitro functional testing, as described herein.

PCSK9 protein = biological target: T1, PCSK9 protein (Mus musculus, UniProt Q80W65); assay: Serum cholesterol and HDL in WT mice, 13 day study; assay type: in vivo; conditions: 10 mg/kg, repeated 13 day study
T1 construct: endogenous in cells; host or cells: WT C57BL/6 mice, in vivo
Text: Male WT mice (C57BL/6 strain, aged 9-10 weeks, 17-27 g) obtained from Jackson Laboratory (Bar Harbor, Me.) were fed a normal chow (Harland-Teklad, Diet 2918) through out the duration of the experiment. […] Naïve mice were also set aside as naïve control group.
Animals were sacrificed and livers were extracted and prepared as in Example 13.

human PCSK9 [1] = biological target: T2, human PCSK9 (Homo sapiens, UniProt Q8NBP7, E620G/G670E/V474I); assay: BIAcore affinity analysis; assay type: binding
T2 construct: made in house
Description: Briefly, the surface plasmon resonance experiments were performed using Biacore 2000 optical biosensors (Biacore, GE Healthcare, Piscataway, N.J.). […] The concentration of PCSK9 protein was varied at 2 fold intervals (the analyte) and was injected over the immobilized antibody surface (at a flow rate of 100 μl/min for 1.5 minutes). […]
The binding signal obtained was proportional to the free PCSK9 in solution.
Antibody binding kinetic parameters including ka (association rate constant), […] (dissociation rate constant), and KD (dissociation equilibrium constant) were determined using the BIA evaluation 3.1 computer program (BIAcore, Inc. Piscataway, N.J.).

human PCSK9 [2] = biological target: T2, human PCSK9; assay: KinExA affinity analysis; assay type: binding; conditions: hPCSK9, KinExA
Text: Briefly, Reacti-Gel™ (6×) (Pierce) was pre-coated with one of human, V5-tagged cyno or His-tagged mouse PCSK9 proteins and blocked with BSA. […] Equilibrium dissociation constant (KD) were obtained from nonlinear regression of the two sets of competition curves using a one-site homogeneous binding model. The KinExA® Pro software was employed in the analysis.

T2 sequence (Q8NBP7 153-692 V474I/E620G/G670E): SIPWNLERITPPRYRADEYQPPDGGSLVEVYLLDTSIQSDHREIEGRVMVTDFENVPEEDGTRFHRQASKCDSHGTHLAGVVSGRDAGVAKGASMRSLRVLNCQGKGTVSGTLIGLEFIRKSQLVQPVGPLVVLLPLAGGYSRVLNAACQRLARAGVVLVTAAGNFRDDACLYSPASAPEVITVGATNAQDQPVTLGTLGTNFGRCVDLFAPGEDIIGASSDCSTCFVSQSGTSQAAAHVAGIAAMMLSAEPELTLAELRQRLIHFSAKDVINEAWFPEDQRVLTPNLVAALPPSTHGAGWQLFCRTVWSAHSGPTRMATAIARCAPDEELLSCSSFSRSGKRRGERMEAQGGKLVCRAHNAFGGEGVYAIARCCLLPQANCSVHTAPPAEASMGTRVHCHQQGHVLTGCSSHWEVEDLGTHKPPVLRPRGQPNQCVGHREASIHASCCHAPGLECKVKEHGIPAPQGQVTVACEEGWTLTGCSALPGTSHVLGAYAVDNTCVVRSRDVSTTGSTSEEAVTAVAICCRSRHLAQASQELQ
human D374Y PCSK9, sequence (Q8NBP7 153-692 D374Y/V474I/E620G/G670E): as the sequence (Q8NBP7 153-692 V474I/E620G/G670E) above, with D222Y counted along it
T1 sequence (Q80W65 156-694): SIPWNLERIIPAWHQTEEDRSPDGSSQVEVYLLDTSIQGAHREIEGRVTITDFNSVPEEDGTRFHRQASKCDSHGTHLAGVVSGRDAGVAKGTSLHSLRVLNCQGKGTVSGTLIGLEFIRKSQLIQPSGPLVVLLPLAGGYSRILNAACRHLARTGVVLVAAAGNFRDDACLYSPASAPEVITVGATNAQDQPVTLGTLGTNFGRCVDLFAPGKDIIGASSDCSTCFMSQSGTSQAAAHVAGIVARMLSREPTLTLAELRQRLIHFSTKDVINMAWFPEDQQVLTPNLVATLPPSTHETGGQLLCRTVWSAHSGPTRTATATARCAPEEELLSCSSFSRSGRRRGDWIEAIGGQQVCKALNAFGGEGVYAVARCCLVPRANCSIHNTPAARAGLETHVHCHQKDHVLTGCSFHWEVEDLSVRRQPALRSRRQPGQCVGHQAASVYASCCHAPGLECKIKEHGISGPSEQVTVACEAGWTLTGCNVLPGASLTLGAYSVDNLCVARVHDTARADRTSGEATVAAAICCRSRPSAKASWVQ

B1: 3B6: anti-PCSK9 ABP, light/heavy variable region SEQ ID NO 46/60 (antibody, listed as Homo sapiens, V domains shown)
VH: QVQLVQSGAEVKKPGASVKVSCKASGYTFTSYGISWVRQAPGQGLEWMGWISTYNGNTNYAQKVQGRVTMTTDTSTSTAYMELRSLRSDDTAVYYCARGYTRDYWGQGTLVTVSS
VL: QPVLTQPLFASASLGASVTLTCTLSSGYSSYEVDWYQQRPGKGPRFVMRVDTGGIVGSKGEGIPDRFSVLGSGLNRYLTIKNIQEEDESDYHCGADHGSGTNFVVVFGGGTKLTVL
- neutralizing ability (human D374Y PCSK9): weak neutralizers

B2: 25A7: anti-PCSK9 ABP, light/heavy variable region SEQ ID NO 15/58; neutralizing clone 25A7.3 (antibody, listed as Homo sapiens, V domains shown)
VH: QVQLVQSGAEVKKPGASVKVSCKASGYTFPSYGISWVRQAPGQGLEWMGWISAYNGNTNYAEKLQGRVTMTTDTSTSTAYMEVRSLRSDDTAVFYCARGYVMDVWGQGTTVTVSS
VL: QSALTQPASVSGSPGQSITISCTGTSSDVGRYNSVSWYQHHPGKAPKVMIYEVSNRPSGVSTRFSGSKSGNTASLTISGLQAEDEADYYCSSYTSSSVVFGGGTKLTVL
- blocking of PCSK9/LDLR in the functional assays (human D374Y PCSK9; hybridoma clones): neutralizing

B3: 27B2: anti-PCSK9 ABP, light/heavy variable region SEQ ID NO 13/87 (antibody, listed as Homo sapiens, V domains shown)
VH: QVQLQESGPGLVKPSQTLSLTCTVSGGSISSGGYYWSWIRQHPGKGLEWIGYIYNSGSTYYNPSLKSRVTISVDTSKNQFSLKLSSVTAADTAVYYCAREDTAMVPYFDYWGQGTLVTVSS
VL: QSVLTQPPSVSGAPGQRVTISCTGSSSNIGAHYDVHWYQQVPGTAPKLLIYGNTYRPSGVPDRFSGSKSGTSASLAITGLQAEDEADYYCQSYDNSLSGVVFGGGTKLTVL
- neutralizing ability (human D374Y PCSK9): non-neutralizing

B4: 13H1: anti-PCSK9 ABP, light/heavy variable region SEQ ID NO 28/91 (antibody, listed as Homo sapiens, V domains shown)
VH: QVQLQQSGPGLVKPSQTLSLTCAISGDSVSSNSAAWNWIRQSPSRGLEWLGRTYYRSKWYKNYSVSVKSRITINPDTSKNQFSLQLNSVTPGDTAVYYCARGGPTAAFDYWGQGTLVTVSS
VL: LSALTQPASVSGSPGQSITISCTGTSSDVGNYNLVSWYQQYSGKAPKLMIYEVSKRPSGVSNRFSGSKSGNTASLTISGLQAEDEADYYCCSYAGSSTLVFGGGTKLTVL
- neutralizing ability (human D374Y PCSK9): non-neutralizing

B5: 13B5: anti-PCSK9 ABP, light/heavy variable region SEQ ID NO 42/69 (antibody, listed as Homo sapiens, V domains shown)
VH: EVQLLESGGGLVQPGGSLRLSCAASGFTFSSYAMSWVRQAPGKGLEWVSTISGSGGRTYYADSVKGRFTISRDNSKNTLYLQMNSLRAEDTAVYYCAKEVGSPFDYWGQGTLVTVSS
VL: QSVLTQPPSVSAAPGQKVTISCSGSNSNIGNNYVSWYQQLPGTAPKLLIYDNNKRPSGIPDRFSGSNSGTSATLGITGLQTGDEADYYCGTWDSSLSAVVFGGGTKLTVL
- neutralizing ability (human D374Y PCSK9): non-neutralizing

B6: 16F12: anti-PCSK9 ABP, light/heavy variable region SEQ ID NO 35/79 (antibody, listed as Homo sapiens, V domains shown)
VH: QVHLVESGGGVVQPGRSLRLSCAASGFTFNSFGMHWVRQAPGKGLEWVALIWSDGSDEYYADSVKGRFTISRDNSKNTLYLQMNSLRAEDTAVYYCARAIAALYYYYGMDVWGQGTTVTVSS
VL: QSVLTQPPSVSAAPGQKVTISCSGSSSNIGNNFVSWYQQLPGTAPKLLIYDYNKRPSGIPDRFSGSKSGTSATLGITGLQTGDEADYYCGTWDSSLSAYVFGTGTRVTVL
- total serum cholesterol after a single dose (PCSK9 protein): significant and substantial decreases in total serum cholesterol
- Kd (human PCSK9 [1]; hPCSK9, pH 7.4 (Table 7.1)): 0.47 nM
- Koff (human PCSK9 [1]; pH 6): 7.007e-05 s⁻¹
- Kon (human PCSK9 [1]; pH 6): 2.392e+06 M⁻¹ s⁻¹
- Kd (human PCSK9 [1]; pH 6 (pH 6.0 HBS-P buffer, n=1)): 0.029 nM
- Koff (human PCSK9 [1]; pH 7.4): 4.983e-05 s⁻¹
- Kon (human PCSK9 [1]; pH 7.4): 106400 M⁻¹ s⁻¹
- Kd (human PCSK9 [1]; pH 7.4 (Table 7.2)): 0.47 nM
- Kd (human PCSK9 [2]): 0.015 nM
